Data as given in patent US20130012451A1 (RESEARCH FOUNDATION OF STATE UNIVERSITY OF NEW YORK, published 2013).

Key:
[1] = biological target: Matrix Metalloproteinase-9 (MMP-9), wild type (Homo sapiens (Human), UniProt P14780 20-707); test: cell-based or functional assay
[2] = biological target: T1, MMP-9 with a carboxy-terminal Myc tag (MMP-9/Myc) (Homo sapiens (Human), UniProt P14780 20-707); test: co-immunoprecipitation, co-transfected COS-1 cells
T1 construct: Expressed from cDNA in COS-1 cells and secreted as proMMP-9; also called Myc-tagged MMP-9; proMMP-9/Myc; not shown: C-terminal Myc tag from the pcDNA3.1-myc vector
Excerpt: FIG. 4. Blade IV of the PEX domain of proMMP-9 is required for homodimerization and cell migration. (A) Ribbon diagram of MMP-9 PEX domain (PDB:1ITV). Each outermost β-strand from the four blades was swapped with the corresponding MMP-2 PEX domain sequences (upper panel). Lower panel: Schematic diagram of substitution mutations at the outermost 3-strands of four blade of MMP-9 by corresponding MMP-2 sequences. […] The conditioned medium was also examined by gelatin zymography (lower panel). […] (P-values reflect comparison with MMP-9 transfected cells: *P<0.05). (D) A peptide mimicking MMP-9 IVS4 abrogates MMP-9 dimerization examined by co-immunoprecipitation (upper panel). Total cell lysate (20 μg) was also examined by an immunoblotting assay using anti-HA antibody (lower panel). (E) Dose dependent inhibition of MMP-9-mediated cell migration by IVS4 peptides. No effect was found using scrambled peptides. COS-1 cells transfected with an empty vector or MMP-9 cDNAs were examined by a transwell chamber migration assay for 6 hours in the presence of DMSO control, specific and scramble peptides at different concentration. Each data point was performed in triplicate and the experiments was repeated three times (*P<0.05).
Each blade contains four anti-parallel […]-strands with peptide loops linking one strand to the next as illustrated in FIG. 1B. […]

Binder | IC50 (potency; inhibition of MMP-9-induced cell migration, transwell assay) [1] [µM] | binding result [2]
SRPQGPFL [IS4 peptide (SRPQGPFL)] | 12 | 
NQVDQVGY [IVS4 peptide (NQVDQVGY)] | 50 | 
MMP-9/IVS4 chimera (MMP-9 with the outermost β-strand of blade IV of the PEX domain, NQVDQVGY, replaced by MMP-2 KSVKFGS) (enzyme, also called MMP-9/Blade IV; MMP-9/blade IV mutant) APRQRQSTLVLFPGDLRTNLTDRQLAEEYLYRYGYTRVAEMRGESKSLGPALLLLQKQLSLPETGELDSATLKAMRTPRCGVPDLGRFQTFEGDLKWHHHNITYWIQNYSEDLPRAVIDDAFARAFALWSAVTPLTFTRVYSRDADIVIQFGVAEHGDGYPFDGKDGLLAHAFPPGPGIQGDAHFDDDELWSLGKGVVVPTRFGNADGAACHFPFIFEGRSYSACTTDGRSDGLPWCSTTANYDTDDRFGFCPSERLYTQDGNADGKPCQFPFIFQGQSYSACTTDGRSDGYRWCATTANYDRDKLFGFCPTRADSTVMGGNSAGELCVFPFTFLGKEYSTCTSEGRGDGRLWCATTSNFDSDKKWGFCPDQGYSLFLVAAHEFGHALGLDHSSVPEALMYPMYRFTEGPPLHKDDVNGIRHLYGPRPEPEPRPPTTTTPQPTAPPTVCPTGPPTVHPSERPTAGPTGPPSAGPTGPPTAGPSTATTVPLSPVDDACNVNIFDAIAEIGNQLYLFKDGKYWRFSEGRGSRPQGPFLIADKWPALPRKLDSVFEERLSKKLFFFSGRQVWVYTGASVLGPRRLDKLGLGADVAQVTGALRSGRGKMLLFSGRRLWRFDVKAQMVDPRSASEVDRMFPGVPLDTHDVFQYREKAYFCQDRFYWRVSSRSELKSVKFGSVTYDILQCPED |  | no binding
